These are literature values, as cited in paper PMC9241073.

One may read the Kd as the constant that tells how readily two partners part at equilibrium.

Data set [1] concerns the target PAK1 (Homo sapiens) (UniProt Q13153).
Data set [2] has the same target. This is another data set of the same source.

Where two headings read alike, the source gives them in different places.

Chain of UniProt Q13153 (Q13153 2-545): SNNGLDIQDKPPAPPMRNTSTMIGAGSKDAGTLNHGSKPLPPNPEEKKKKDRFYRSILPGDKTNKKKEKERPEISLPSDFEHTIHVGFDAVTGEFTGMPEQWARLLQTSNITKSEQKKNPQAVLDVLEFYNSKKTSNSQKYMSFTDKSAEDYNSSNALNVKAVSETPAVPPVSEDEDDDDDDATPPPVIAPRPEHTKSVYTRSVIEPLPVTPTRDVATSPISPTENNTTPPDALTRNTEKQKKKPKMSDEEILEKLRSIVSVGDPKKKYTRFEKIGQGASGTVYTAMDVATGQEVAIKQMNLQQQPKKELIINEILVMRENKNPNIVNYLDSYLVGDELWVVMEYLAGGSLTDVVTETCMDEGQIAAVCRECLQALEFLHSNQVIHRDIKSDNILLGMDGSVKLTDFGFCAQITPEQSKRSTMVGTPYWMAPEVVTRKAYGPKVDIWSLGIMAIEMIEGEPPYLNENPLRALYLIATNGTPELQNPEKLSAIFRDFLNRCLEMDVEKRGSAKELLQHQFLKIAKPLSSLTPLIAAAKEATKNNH

Regarding CDC42 (from UniProt P60953), the Kd is more than 2000 nM with PAK1 (Homo sapiens) [1] and more than 1000 nM with PAK1 (Homo sapiens) [2].
